Assay [1] has as its target T1, soluble EGFR (sEGFR), amino acids 1-619 of mature human EGFR with (Gly)4Ser linker and (His)6 tag (human, UniProt P00533 25-643, biotinylated with Sulfo-NHS-LC-Biotin in the filter lift and the capture ELISA).
T1 construct: range 1-619; Expressed in CHO-K1 cells; also called biotinylated sEGFR; B-sEGFR
Nature of the assay: capture filter lift and capture ELISA, biotinylated sEGFR.
Protocol: Briefly, a filter is coated with a capture reagent (goat anti-human kappa chain antibody), then the coated filter is placed on a plate with phage plaques, from phage which are expressing Fabs. The filter is incubated with the plaques, then the filter is incubated with biotinylated sEGFR, and bound biotinylated sEGFR is detected by binding of Neutravidin-AP and incubation with the detectable alkaline phosphatase substrate.
The filter is submerged for 15 min. The filter is washed three times in PBS. The filter is blocked in 1% BSA in PBS for 1 hour. The filter is washed three times in PBS. The filter is air dried for 10 min. The filter is carefully laid onto phage plate and incubated overnight at 22° C. The filter is carefully lifted off and washed briefly in PBS. The filter is incubated with Biotinylated antigen at 1/1000 dilution into 3% dry milk, PBS, 0.05% Tween 20 for 1 hour at room temperature. The filter is vacuum washed with PBS, 0.05% Tween 20 three times. The filter is incubated with Neutravidin-AP 1/1000 in PBS, 0.05% Tween 20 for 30 min. at room temperature. The filter is vacuum washed with PBS, 0.05% Tween 20 three times. The filter is developed in 10 mls AP substrate (Nitro-blue tetrazolium, 5-Bromo-4-chloro-indolyl phosphate, Pierce, Rockford, Ill.). Plaques are selected based on blue color intensity.
Capture ELISA is used as an assay to detect Fabs which bind sEGFR as follows. […] The wells are washed 3 times with PBS-Tween 20 (0.05%). the wells are blocked with 50 μL/well 1% BSA in PBS-Tween for 1 hour at RT. The wells are washed 3 times with PBS-Tween. […] The plate is incubated at RT for 2 hours. The plate is wash 3 times with PBS-Tween. 50 μL/well biotinylated-sEGFR diluted 1/1000 in PBS-Tween are added and the plate is incubated at RT for 1 hour. The plate is washed 3 times with PBS-Tween.

The target of assay [2] is T1, soluble EGFR (sEGFR), amino acids 1-619 …. Put plainly: KinExA, calculated as Kd x kon.
Protocol: (§1) Binding affinity measurements for full-length monoclonal antibodies of the invention are determined using a Sapidyne KINEXA assay. NHS-activated fast-flow sepharose beads (GE Healthcare) are pre-coated with antigen (50 μg anti-EGFR antibody per ml of beads) and blocked with 10 mg/ml BSA in 1 M Tris-HCl, pH 8.0. […] To determine the free antibody present at equilibrium, each sample is passed through the sEGFR-coated beads. The amount of bead-bound antibody is then quantified by passing a solution of fluorescent (Cy5) labeled goat anti-human Fc antibody (Jackson Immuno Research) diluted 1:4000 in running buffer over the beads. The measured fluorescence signal is proportional to the concentration of free antibody at equilibrium. Each concentration of sEGFR is measured in duplicate. The equilibrium dissociation constant (KD) is obtained from non-linear regression of the competition curves using a multiple-curve, one-site homogeneous binding model (KINEXA software).
(§2) The association rate constant (kₒₙ) for sEGFR binding is also determined using a Sapidyne KINEXA assay. Two pM antibody is mixed with 20 pM sEGFR using the same conditions as described above. At various times, samples are probed for free antibody using the conditions described above for equilibrium binding, and then the resulting time dependence is fit using the KINEXA software to determine the association rate (kₒₙ). The dissociation rate constant (koff) is calculated using the expression koff=Kd×kₒₙ.
The target is the same in assay [3]. Nature of the assay: KinExA, full-length antibody with sEGFR in solution.
Protocol: as §1, §2
Assay [4] has the same target. Put plainly: KinExA, equilibrium, full-length antibody with sEGFR in solution. On the technique in general: A kinetic exclusion assay measures how much of one partner remains free in solution.
Protocol: as §1
The target is the same in assay [5]. Put plainly: capture ELISA: binder captured on goat anti-human kappa at varied concentration, biotinylated sEGFR (1/1000) detected with Neutravidin-AP, OD405. For orientation: An ELISA detects its analyte on a solid surface through an enzyme-linked reagent.
Protocol: Capture ELISA is used as an assay to detect Fabs which bind sEGFR as follows. […] The wells are washed 3 times with PBS-Tween 20 (0.05%). the wells are blocked with 50 μL/well 1% BSA in PBS-Tween for 1 hour at RT. The wells are washed 3 times with PBS-Tween. […] The plate is incubated at RT for 2 hours. The plate is wash 3 times with PBS-Tween. 50 μL/well biotinylated-sEGFR diluted 1/1000 in PBS-Tween are added and the plate is incubated at RT for 1 hour. The plate is washed 3 times with PBS-Tween. 50 μL/well Neutravidin-Alkaline Phosphatase (Neutravidin-AP; Pierce, Rockford, Ill.) diluted 1/1000 in PBS-Tween are added and incubated for 30 min. at RT. The plate is washed 3 times with PBS-Tween. 150 μL/well pNPP substrate (Sigma) is added and incubated at 37° C. until color develops.

Consider 8 molecules from US20080274114A1 (APPLIED MOLECULAR EVOLUTION, published 2008).

For orientation: koff means a measure of how fast the partners let go of each other. As a reminder, the kon is the second-order rate constant of association. The low end stands for slow association, the high end for fast association. For orientation: Kd means the equilibrium constant for the complex coming apart. High values mean weaker binding, low ones tighter binding. A word on the EC50 (read off the curve): it is the concentration that produces a half-maximal response.

B1: Fab 4.14 (Fab, V domains shown)
VH: QVQLQESGPGLVKPSETLSLTCTVSGFSLTNWDVHWIRQPPGKGLEWIGNIWSGGNTDYNTPFTSRVTISVDTSKNQFSLKLSSVTAADTAVYYCARALDYYDYDYAYWGQGTMVTVSS
VL: EIVLTQSPDFQSVTPKEKVTITCRASYSIGTNIHWYQQKPDQSPKLLIKYASESISGVPSRFSGSGSGTDFTLTINSLEAEDAATYYCQQNNDWPTTFGGGTKVEIK
notes: Fab
With B1, the binding result in assay [1] was “binds”.

B2: full-length monoclonal antibody VH4.21 (antibody, V domains shown)
VH: QVQLQESGPGLVKPSETLSLTCTVSGFSLTNWDVHWIRQPPGKGLEWIGVIWSGGNTDYNTPFTSRVTISVDTSKNQFSLKLSSVTAADTAVYYCARALDYYDYDFAYWGQGTMVTVSS
VL: EIVLTQSPDFQSVTPKEKVTITCRASYSIGTNIHWYQQKPDQSPKLLIKYASESISGVPSRFSGSGSGTDFTLTINSLEAEDAATYYCQQNNDWPTSFGGGTKVEIK
notes: Full-length antibody with human Fc
B2: the off-rate constant (koff) in assay [2] was 2.02e-06 s⁻¹. The molecule further came in with a kon in assay [3] of 1.07e+07 M⁻¹ s⁻¹. In assay [4], this molecule returned a Kd of 0.188 pM.

B3: Fab 2.II.3 (Fab, V domains shown)
VH: QVTLKESGPVLVKPTETLTLTCTVSGFSLSNWDVHWIRQPPGKALEWLAVIWSGGNTDYNTPFTSRLTISKDTSKSQVVLTMTNMDPVDTATYYCARALDYYDYDFAYWGQGTMVTVSS
VL: EIVLTQSPDFQSVTPKEKVTITCRASYSIGTNIHWYQQKPDQSPKLLIKYASESISGVPSRFSGSGSGTDFTLTINSLEAEDAATYYCQQNNDWPTTFGGGTKVEIK
notes: Fab; also called 2.11.3
On to B3, for which the binding result in assay [1] is reported as “binds”.

B4: Fab 4.21 (Fab, V domains shown)
VH: QVQLQESGPGLVKPSETLSLTCTVSGFSLTNWDVHWIRQPPGKGLEWIGVIWSGGNTDYNTPFTSRVTISVDTSKNQFSLKLSSVTAADTAVYYCARALDYYDYDFAYWGQGTMVTVSS
VL: EIVLTQSPDFQSVTPKEKVTITCRASYSIGTNIHWYQQKPDQSPKLLIKYASESISGVPSRFSGSGSGTDFTLTINSLEAEDAATYYCQQNNDWPTSFGGGTKVEIK
notes: Fab
In the case of B4, the “EC50 (read off the curve)” value in assay [5] is about 0.02 µg/mL.

B5: Fab 2.38 (Fab, V domains shown)
VH: QVTLKESGPVLVKPTETLTLTCTVSGFSLSNWGVHWIRQPPGKALEWLAVIWSGGNTDYNTPFDSRLTISKDTSKSQVVLTMTNMDPVDTATYYCARALDYYDYDFAYWGQGTMVTVSS
VL: EIVLTQSPDFQSVTPKEKVTITCRASYSIGTNIHWYQQKPDQSPKLLIKYASESISGVPSRFSGSGSGTDFTLTINSLEAEDAATYYCQQNNEWPTSFGGGTKVEIK
notes: Fab
For the molecule B5, the binding result in assay [1] was “binds”.

B6: full-length monoclonal antibody VH4.15 (antibody, V domains shown)
VH: QVQLQESGPGLVKPSETLSLTCTVSGFSLTNYGVHWIRQPPGKGLEWIGNIWSGGNTDYNTPFTSRVTISVDTSKNQFSLKLSSVTAADTAVYYCARALDYYDYDYAYWGQGTMVTVSS
VL: EIVLTQSPDFQSVTPKEKVTITCRASYSIGTNIHWYQQKPDQSPKLLIKYASESISGVPSRFSGSGSGTDFTLTINSLEAEDAATYYCQQNNEWPTSFGGGTKVEIK
notes: as for B2
As to B6, the off-rate constant (koff) in assay [2] is 1.75e-07 s⁻¹. In addition, the kon in assay [3] stood at 1.46e+07 M⁻¹ s⁻¹. In addition, binding in assay [4] was put at a Kd of 0.012 pM.

B7: full-length monoclonal antibody VH2.69 (antibody, V domains shown)
VH: QVTLKESGPVLVKPTETLTLTCTVSGFSLSNWDVHWIRQPPGKALEWLAVIWSGGNTDYNTPFASRLTISKDTSKSQVVLTMTNMDPVDTATYYCARALDYYDYNFAYWGQGTMVTVSS
VL: EIVLTQSPDFQSVTPKEKVTITCRASYSIGTNIHWYQQKPDQSPKLLIKYASESISGVPSRFSGSGSGTDFTLTINSLEAEDAATYYCQQNNNWPTSFGGGTKVEIK
notes: as for B2
Take B7: in assay [2], the koff was 6.51e-06 s⁻¹. This molecule had an on-rate constant (kon) in assay [3] of 9.64e+06 M⁻¹ s⁻¹. The affinity in assay [4], expressed as Kd, was 0.68 pM.

B8: full-length monoclonal antibody VH2.87 (antibody, V domains shown)
VH: QVTLKESGPVLVKPTETLTLTCTVSGFSLSNWDVHWIRQPPGKALEWLAVIWSGGATDYNTPFNSRLTISKDTSKSQVVLTMTNMDPVDTATYYCARALDYYDYNFAYWGQGTMVTVSS
VL: EIVLTQSPDFQSVTPKEKVTITCRASYSIGTNIHWYQQKPDQSPKLLIKYASESISGVPSRFSGSGSGTDFTLTINSLEAEDAATYYCQQNNNWPTTFGGGTKVEIK
notes: as for B2
For the molecule B8, in assay [4], the Kd amounted to 0.215 pM.
